For the data set the following is noted: whole UniProt chain shown.
The mark [1] stands for this setting: Escherichia coli (strain K12), pH 7.8, 23 °C, Urea, Fluorescence, Tris-HCl 10 mM, NaCl 100 mM, reversible: yes.
[2] abbreviates: Geobacillus stearothermophilus, pH 5.4, 25 °C, Thermal, CD, acetate 20 mM, NaCl 100 mM, reversible: yes.
The mark [3] stands for this setting: Geobacillus stearothermophilus, pH 5.4, 25 °C, Urea, CD, acetate 20 mM, NaCl 100 mM, reversible: yes.
The mark [4] stands for this setting: Geobacillus stearothermophilus, pH 5.4, 25.15 °C, Urea, CD, sodium acetate 10 mM, Nacl 100 mM.
Where [5] appears, read: Geobacillus stearothermophilus, pH 5.4, Thermal, CD, acetate 20 mM, NaCl 100 mM, reversible: yes.
The mark [6] stands for this setting: Geobacillus stearothermophilus, pH 5.45, 10 °C, GdnHCl, CD, sodium acetate,sodium sulfate.
Setting [7] is: Geobacillus stearothermophilus, pH 5.45, 25 °C, Urea, CD, Sodium phosphate 20 mM, NaCl 100 mM, reversible: Yes.
[8] abbreviates: Geobacillus stearothermophilus, pH 5.45, 25 °C, Urea, CD, sodium phosphate 10 mM, NaCl 100 mM, reversible: Yes.
Setting [9] is: Geobacillus stearothermophilus, pH 5.45, 25 °C, Urea, CD, sodium phosphate 20 mM, sodium chloride 100 mM, reversible: yes.
Where [10] appears, read: Geobacillus stearothermophilus, pH 5.45, 25 °C, Urea, Fluorescence, Sodium phosphate 20 mM, NaCl 100 mM, reversible: Yes.
The mark [11] stands for this setting: Geobacillus stearothermophilus, pH 5.5, 25 °C, Urea, CD, NaAc 20 mM, NaCl 100 mM.
Setting [12] is: Geobacillus stearothermophilus, pH 5.5, 25 °C, Urea, CD, Sodium phosphate 20 mM, NaCl 100 mM.
The mark [13] stands for this setting: Geobacillus stearothermophilus, pH 8, 25 °C, GdnHCl, CD, Tris-HCl 20 mM, sodium chloride 100 mM, reversible: yes.

Where “and” joins values, the source holds several entries; their conditions need not be identical. Equal entries are not always repeated.

B1: Co-chaperonin GroES wild type, P0A6F9 (protein)
chain: MNIRPLHDRVIVKRKEVETKSAGGIVLTGSAAAKSTRGEVLAVGNGRILENGEVKPLDVKVGDIVIFNDGYGVKSEKIDNEEVLIMSESDILAIVEA
For B1, under setting [1], the denaturant m value is 1.83 kcal/mol/M and the unfolding free energy is 5.77 kcal/mol.

B2: Outer membrane porin F wild type, P02931 (protein)
chain: MMKRNILAVIVPALLVAGTANAAEIYNKDGNKVDLYGKAVGLHYFSKGNGENSYGGNGDMTYARLGFKGETQINSDLTGYGQWEYNFQGNNSEGADAQTGNKTRLAFAGLKYADVGSFDYGRNYGVVYDALGYTDMLPEFGGDTAYSDDFFVGRVGGVATYRNSNFFGLVDGLNFAVQYLGKNERDTARRSNGDGVGGSISYEYEGFGIVGAYGAADRTNLQEAQPLGNGKKAEQWATGLKYDANNIYLAANYGETRNATPITNKFTNTSGFANKTQDVLLVAQYQFDFGLRPSIAYTKSKAKDVEGIGDVDLVNYFEVGATYYFNKNMSTYVDYIINQIDSDNKLGVGSDDTVAVGIVYQF
The term Tm denotes the temperature at which the thermal transition is half complete. On to B2, for which the Tm (Escherichia coli (strain K12), pH 7.5, Thermal, CD, Tris 50mM) came out at 79.3 °C.

B3: Large ribosomal subunit protein bL9 wild type, P02417 (protein)
chain: MKVIFLKDVKGKGKKGEIKNVADGYANNFLFKQGLAIEATPANLKALEAQKQKEQRQAAEELANAKKLKEQLEKLTVTIPAKAGEGGRLFGSITSKQIAESLQAQHGLKLDKRKIELADAIRALGYTNVPVKLHPEVTATLKVHVTEQK
B3: the unfolding free energy by setting is: (Geobacillus stearothermophilus, pH 5.4, 25 °C, GdnHCl, CD, phosphate 10 mM, NaCl 100 mM, reversible: yes) 2.1 kcal/mol; under setting [2], 2.18 kcal/mol; under setting [3], 1.9 kcal/mol; under setting [4], 4.3 kcal/mol; under setting [6], 6.02 kcal/mol; (Geobacillus stearothermophilus, pH 5.45, 25 °C, Thermal, CD, Sodium phosphate 20 mM, NaCl 100 mM, reversible: Yes (>90%)) 3.82 kcal/mol. In addition, the unfolding free energy by setting is: under setting [7], 3.32 kcal/mol; under setting [8], 4.17 kcal/mol; under setting [9], 3.91 kcal/mol; under setting [10], 3.84 kcal/mol; under setting [11], 4.3 kcal/mol and 5.85 kcal/mol; under setting [12], 4.3 kcal/mol. Under setting [13], the unfolding free energy was determined as 5.9 kcal/mol. The “heat capacity change of unfolding” value reads like this: under setting [2], 0.38 kcal/mol/K; under setting [5], 0.38 kcal/mol/K. The denaturant m value is, setting by setting: under setting [3], 0.48 kcal/mol/M; under setting [4], 0.66 kcal/mol/M; under setting [6], 1.52 kcal/mol/M; under setting [7], 1.32 kcal/mol/M; under setting [8], 0.66 kcal/mol/M; under setting [9], 1.21 kcal/mol/M. In addition, the denaturant m value reads like this: under setting [10], 1.24 kcal/mol/M; under setting [11], 0.66 kcal/mol/M; under setting [12], 0.66 kcal/mol/M; under setting [13], 2.24 kcal/mol/M. Moreover, the “denaturant midpoint (higher = more stable)” value reads like this: under setting [3], 3.96 M; under setting [4], 6.5 M. Also, the Tm stood at 65.3 °C under setting [5] and 77 °C (Geobacillus stearothermophilus, pH 7.4, Thermal, CD, Tris 10 mM, NaCl 100 mM, reversible: yes(95-100%)). Further, the “unfolding enthalpy (van 't Hoff)” value under setting [5] is 26.3 kcal/mol.

(Values after FireProtDB.)
